Measurements: PMC11106768, “Synthetic Vesicles for Sustainable Energy Recycling and Delivery of Building Blocks for Lipid Biosynthesis” (ACS Synthetic Biology, 2024)

How the values were obtained:
E. coli GlpT = biological target: T1, E. coli GlpT (Escherichia coli, UniProt P08194); assay: GlpT-dependent export from feeder vesicles, read by LC-MS of DOPA formed in utilizer vesicles; assay type: biochemical; details: antiport with external Pi, 50 mM KPi pH 7.0, 30 °C; indirect read-out
T1 construct: plasmid pBADmycHisB-glpT, expressed in E. coli MC1061, Ni-Sepharose and size exclusion in DDM, coreconstituted with L. sakei ArcD in vesicles; 54 kDa
T1 sequence (P08194 1-452): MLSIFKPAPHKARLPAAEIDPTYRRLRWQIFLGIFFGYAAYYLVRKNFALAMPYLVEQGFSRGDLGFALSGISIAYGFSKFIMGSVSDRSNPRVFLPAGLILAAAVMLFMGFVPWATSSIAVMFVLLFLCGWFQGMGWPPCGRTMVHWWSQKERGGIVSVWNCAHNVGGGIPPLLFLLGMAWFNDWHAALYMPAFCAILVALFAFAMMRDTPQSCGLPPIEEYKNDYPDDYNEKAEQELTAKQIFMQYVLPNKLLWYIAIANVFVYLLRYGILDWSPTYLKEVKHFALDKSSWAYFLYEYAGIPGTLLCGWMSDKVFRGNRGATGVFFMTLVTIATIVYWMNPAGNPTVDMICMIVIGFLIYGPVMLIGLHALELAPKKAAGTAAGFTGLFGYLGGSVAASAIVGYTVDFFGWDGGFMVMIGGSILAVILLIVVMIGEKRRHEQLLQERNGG

[1] = substrate: N=C(N)NCCC[C@H](N)C(=O)O; assay: radiolabelled uptake into L-ornithine-loaded proteoliposomes, Michaelis-Menten fit; assay type: biochemical, Latilactobacillus sakei; details: 50 mM KPi pH 7.0, 2 mM DTT, 30 °C, internal L-ornithine 10 mM, external L-arginine 1-100 μM, labelled compound
Protocol: radiolabelled uptake into L-ornithine-loaded proteoliposomes, Michaelis-Menten fit on L. sakei ArcD | the affinity constant (KM) and turnover number (kcat) were determined for the L. sakei antiporter

[2] = substrate: N=C(N)NCCC[C@H](N)C(=O)O; assay: cells, lysate or membranes; parameters: species or system L. lactis JP9000 ΔarcD1ΔarcD2; Radiolabeled L-arginine uptake in L-ornithine-loaded whole cells, filtration and scintillation counting; details: pH 7.0; 20.0 °C
Protocol: The arcD and arcE genes were cloned into nisin A-based expression vectors and flanked by a 10× His-tag at either the N- or the C-terminus. The constructs were transformed into L. lactis JP9000 ΔarcD1ΔarcD2[24] and the expression was optimized. […] All of these proteins were tested for L-arginine transport activity in vivo (Figure S4). […] By assuming a similar level of expression as the original ArcD2, ArcD from L. sakei would have a 10-fold higher turnover number and was therefore chosen for further in vitro characterization (Table S4). The genes encoding arcD/E were PCR-amplified from the source DNA templates with Phusion high-fidelity DNA polymerase (Thermo Fisher Scientific) and customized primers (Eurofins Genomics, Table S3). Next, fragment exchange (FX)[36] was exploited to clone the genes of interest into pNZ-N(His) or pNZ-C(His) vectors suitable for overexpression in L. lactis strains. According to the procedure, the PCR amplification products were first cloned into a sequencing vector (pINITIAL). To this end, both the insets and the backbone (1:5 molar ratio) were digested with 2.5 U of SapI (New England Biolabs) for 1 h at 37 °C, followed by a heat inactivation step at 60 °C for 20 min. Ligation was carried out by adding 5 U of T4 ligase (New England Biolabs) and incubating for 1 h at RT. […]

[3] = substrate: N=C(N)NCCC[C@H](N)C(=O)O; assay: cells, lysate or membranes; details: pH 7.0; 20.0 °C

**Q.** `O=P(O)(O)OC[C@H](O)CO` [glycerol 3-phosphate] was tested. Which “GlpT-dependent export from feeder vesicles, read by LC-MS of DOPA formed in util” value (E. coli GlpT) did it give?
**A.** only when the feeder vesicles were equipped with the glycerol 3-phosphate exporter GlpT

B1: L. sakei ArcD (Latilactobacillus sakei) (protein)
chain: MTEEKPAKKIGLLALIALVISSSIGSGVFGLTSDLASASAPGPVLIAWVIVGFGILMLALSLNNLLMKEPELEGIFSYAEKGFGPFAGFISGWGYWLSAWLGNVTFATILMSALGYFFPIFKSRQNLPSILVASVLSWSLTYFVNRGVEGAAAINTLVTICKLIPLFVFIIFGIVLFKGHLFTQAFWNNMSSSFVAGDVMSQIKNCMMVMMWVFVGIEGASMLSARAEKKSDAGKATILGLVSLLAIYILASVLPYGYLTQDQLASIKQPAMLYIFEQMVGTWGGYFIGVGLIISILGAWLSWTMLPAETMLLMAKQNLLPAYFGRVNKKKAPTFALVVTAGLIQVFLFTLLFTTKAYNFAYSLCTASIIVCYMLVAAYQIKYSWAHLQEKGNRQQLLIGVLALLFEIAGILMAGVSYLLLCFIAYIPGIYFYGRARKNNGHQHFLSKGEWLITTIIVIGAIIGIWLVVSGKIVI
notes: N-terminal 10x His-tag (plasmid pNZarcD-LS), expressed in L. lactis JP9000 delta-arcD1 delta-arcD2, purified in DDM, reconstituted in DOPE/DOPG/DOPC liposomes; 54 kDa
**Q.** Which Km [1] does the source give for B1 here?
**A.** 12.2 ± 1.5 µM

**Q.** What about the kcat [1] of the same molecule?
**A.** 5.8 ± 1.2 s⁻¹

**Q.** And the Km [2]?
**A.** 26.8 µM

B2: P. aeruginosa ArcD (Pseudomonas aeruginosa PAO1) (protein)
chain: MSQESSQKLRLGALTALVVGSMIGGGIFSLPQNMAASADVGAVLIGWAITAVGMLTLAFVFQTLANRKPELDGGVYAYAKAGFGDYMGFSSAWGYWISAWLGNVGYFVLLFSTLGYFFPIFGKGDTVAAIVCASVLLWALHFLVLRGIKEAAFINTVTTVAKVVPLFLFILICLFAFKLDIFTADIWGKSNPDLGSVMNQVRNMMLVTVWVFIGIEGASIFSSRAEKRSDVGKATVIGFITVLLLLVLVNVLSMGVMTQPELAKLQNPSMALVLEHVVGHWGAVLISVGLLISLLGALLSWVLLCAEIMFAAAKDHTMPEFLRRENANQVPANALWLTNICVQVFLVVVFFTSGDPDGMDPYTKMLLLATSMILIPYFWSAAYGLLLTLKGETYENDARERSKDLVIAGIAVAYAVWLLYAGGLKYLLLSALLYAPGAILFAKAKHEVGQPIFTGIEKLIFAAVVIGALVAAYGLYDGFLTL
**Q.** B2 was tested. Which Km [3] did it give?
**A.** 7.5 µM
